We go through four molecules from patent publication US20040096852A1, “Mixed fibrils” (priority 2000, published 2004).

Ends that are not written are not given here. * marks the point of attachment. Dansyl = CN(C)c1cccc2c(S(=O)(=O)*)cccc12

The conditions of data set [1]: pH 2.5. From the text: Where the proteins forming the fibrils are unrelated the kinetics of fibril formation are likely to be different.
Data set [2] in a line: Solubility of peptide under labeling conditions. The class given is physicochemical. As to the method:
TTR10-19 labeling with fluorescein. The N-terminal cysteine residue of TTR10-19 was the target for labeling by the thiol-reactive fluorophore fluorescein-5-maleimide (F5M; Molecular Probes, Eugene, Oreg.). TTR10-19 was resuspended at 1 mg/ml in H2O, and the cysteine residue reduced by the addition of a 10-fold molar excess of tris-(2-carboxyethyl) phosphine (TCEP; Molecular Probes, Eugene, Oreg.) and incubation for 1 h at room temperature. F5M in DMSO was added to the peptide solution to give a 10-fold molar excess of fluorophore over peptide in a final concentration of 10% DMSO. Under these conditions TTR10-19 was fully soluble. The mixture was incubated overnight at 4° C. to ensure maximum labeling. The labeling mixture was then applied to a disposable SepPak C-18 reverse-phase chromatography column (Waters, Milford, Mass.) and washed with H2O/CH3CN (90:10 v/v). TCEP and unreacted label eluted in the wash. The peptide was then eluted from the column with H2O/CH3CN (40:60 v/v), and a mixture of labeled and unlabelled peptide was detected by MALDI-TOF mass spectrometry. […]
TTR105-115 labeling with dansyl chloride. […] The peptide was then eluted from the column with H2O/CH3CN (50:50 v/v), and a mixture of labeled and unlabelled peptide was detected by MALDI-TOF mass spectrometry. […]

For data set [3], the target named is T1, Bovine insulin (bovine, UniProt P01317 85-105; P01317 25-54).
T1 construct: mature; Bought protein, assembled into amyloid fibrils at low pH and high temperature; also called insulin fibrils
T1 sequence (P01317 85-105 limits assumed, chain 1 of 2): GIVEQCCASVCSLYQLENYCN
T1 sequence (P01317 25-54 limits assumed, chain 2 of 2): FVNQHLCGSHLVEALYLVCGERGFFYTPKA
Briefly: fluorescence anisotropy of labeled peptide co-assembled into fibrils (free peptide 0.02).

The target of data set [4] is T2, TTR105-115 (human).
T2 construct: Unlabelled synthetic peptide, present as amyloid fibrils in the assays
T2 peptide: YTIAALLSPYS
The data set is described as above.

The target of data set [5] is T3, TTR10-19 (human).
T3 construct: Unlabelled synthetic peptide, present as amyloid fibrils in the assays; also called TTR10-19 fibrils
T3 peptide: CPLMVKVLDA
Described as above.

Data set [6] has as its target T1, Bovine insulin. Briefly: fluorescence anisotropy of labeled peptide co-assembled into fibrils (free peptide 0.03). Background: Polarisation of emitted light reports the rotation of a fluorescent probe.
Method: (§1) All anisotropy measurements were monitored over 10 sec to rule out photobleaching phenomena and then averaged.
(§2) Panel a: F5M-TTR₁₀₋₁₉ incorporated into TTR₁₀₋₁₉ fibrils (dashed line) is compared with F5M-TTR₁₀₋₁₉ (solid line) in 20 mM sodium phosphate buffer, pH 1.0 at a final labeled peptide concentration of 0.3 μM. Panel b: dansyl-TTR₁₀₅₋₁₁₅ incorporated into TTR₁₀₅₋₁₁₅ fibrils (dashed line) is compared with dansyl-TTR₁₀₅₋₁₁₅ (solid line) in water at a final labeled peptide concentration of 0.9 μM. The fluorescence spectra have been normalised. […] Fibrils were pelleted by centrifugation at 9500 g for 15 min, the pellet resuspended in H₂O pH 2 and deposited on a glass slide and imaged using fluorescence light microscopy. […] TTR₁₀₋₁₉ containing 1% (w/w) dansyl-TTR₁₀₅₋₁₁₅ was resuspended at a final total peptide concentration of 10 mg/ml in 10% CH₃CN adjusted to pH 2 with TFA. The sample was incubated at 37° C. for 10 days after which time the CD spectrum indicated the formation of significant O-sheet structure, and fibrils were observed by EM.
For data set [7], the target named is T2, TTR105-115. The data set is described as above.
Method: as §1, §2
In data set [8] the target is T3, TTR10-19. The description is as above.
Method: as §1, §2

Turning to CPLMVKVLDA [TTR10-19], in data set [1], the time remaining soluble was 48 h. The solubility entry in data set [2] (1 mg/ml in H2O, TCEP, F5M, final 10% DMSO) is “fully soluble”.
Take YTIAALLSPYS [TTR105-115]: the time remaining soluble in data set [1] was determined as 48 h. In addition, the solubility result in data set [2] (1 mg/ml in H2O/CH3CN (80:20 v/v), dansyl chloride, 10% DMSO, pH 9.0) is reported as “fully soluble”.

B1: dansyl-TTR105-115 (peptide)
peptide: Dansyl-YTIAALLSPYS
notes: Synthetic peptide derived from human transthyretin
Consider B1, for which the entries for the “fluorescence anisotropy on incorporation into fibrils” value in data set [3], in data set [4] and in data set [5] were 0.19, 0.13 and 0.16, respectively.

B2: F5M-TTR10-19 (peptide)
peptide: C(fluorescein‑5‑maleimide)PLMVKVLDA
notes: Synthetic peptide derived from human transthyretin; also called fluorescein-5-maleimide labeled TTR10-19
Take B2: the “fluorescence anisotropy on incorporation into fibrils” value in data set [6] is 0.16; in data set [7], 0.22; in data set [8], 0.17.
